In the DeepSol protein solubility set:

Assay: soluble on expression in E. coli; label from the status in PepcDB or PDB records

Sequence | soluble on expression in E. coli
MSLESSDDAPLPTDVPKDAAEALVCFLTQHVRALMSPHADPVPSCPRCGGTQIHKKGYAPLQTGPLPTYQCEGCDHYFSRLSGTPLSGHRIRRSAEELITMLPQAIGCPEAARRLGVMERTIRNTVRMFRRWVLELDPSGHHERHIRLGGRFTAVRDQAPPVVDEQIAYEDVALTAKLLEDFETIHSNKHFPMPDCPACGADRLVTKGTFSGFARFKCASCGKQFNRRTGTPFTRNRKVYERQRALIRYLGLPLSITQLAEIVGGDHGNVARLIREFRERCDQLDPTGQLSHRIRAGARPAEDTPCIQCGARHVRFDVRGITPGKCAVCGRLISMRRAIIERDGVLEVGPWQWAEQLQQEGHHHHHH | not soluble
MSLEVGFAPAEFTVTDKDGRKVFLSDYKGKYVLIYHWGLCPGTFWVNPKITDLYQKYHEKGLEVLGFTRDDLLKSLQGSSEEFKKDERVQGLLSHPWTTVYTEDEGNGFIVKDLYFSGVPILMLISPDGITLARGYTKAYEEVKNLLDRNLGNKEGHHHHHH | soluble
MSLEYNLTTTEIELVNVTASWDEGIGELFEKIKQENKANGQPNGDAGLFFTNLYVTPVLKNISLYLEKGQMLAVAGSTGSGKSSLLMMILGELVPSEGKIRHSGRISFSPQTSWIMPGTIRDNILFGLTYDEFRYTSVIKACQLEEDLALLPEKDKTPLMEGGVTLSGGQRARIGLARAVYKDADLYLLDSPFTHLDIVTEKEIFERCLCKLLSSKTRIVVTSKLEHLKRADKILLLHNGVCYFYGSFSELQAKRPDFSSLLLGLEAYDNIKAERRSSILTETLRRVSIDESTVFRGEGHHHHHH | soluble
MSLFDPNDYKDEIRQIARDKANLELDLKGDIGWSLFPWLGLELHDTSIASAATPTKPFADLQMLGLSVRVLPLLRKDVQMSAIRVEGLSLDLVRDKQGKGNWENIGKPAQPQAPAAPSETPPAADGKGAQAQAPEQAPQNDSPRTPIKLDIDSLNVNNARVTYTDEASGKQYNVEGIELSTGAIREGSSIPLKLNAYLGTNQPVVRVKTELTGNLRFDTALRRYQLEDARLSGEASGEPLQGKTATFSAQGQLLLDQSAQIAEWNGLKLSVNQLRALGELKARELDKDTKFSGGLSIAPMNLREFLAGIGVTLPAMADANTLGKFELNTRLAGSRNSLNLEDLKLGLDDTAFSGRFGIADFARQSLRAQLKGDKLDLDRYLPAKAKQAQDAASATRKAEVDATVASAAQGNTPLPEKPTRQAWSDAPLLPIATLRKLDLDVALNFGRLTVEKLPIDDASLKLRGQGGVISLDDMRGGLYNGRFNAKANLDVRQDSAVLTATKHIANVPVERLLEAQGKKPPVKGLLDLDADIRTSGNSEKSWIDHLNGNARFSLINGVLPDANLEQQLCQGIATLNRKALAGTHGGKDTPFRELKGSLNFTNGVASNPDLKVAIPGLAVSGHGDIDLRVLGMDYRIGVEIQGDKSDMPDPACQVNQRYAGIEWPLLCRGPLELGAKACRLDKEGMGKVAAKLAGNRLNEKLEEKLGDKVSPELKDALKGLFNRKEGHHHHHH | soluble
MSLFIDKQTVERHFSKSAHLYDGVNHVQRKMAHRLVQLLDEKRRDAKDEPRAILDIGCGTGWLTRECLKSFPQATIDAVDLSKQMLEVAEKNVSSHPNVQFIQGDIEKMVREKPSAKTYDVIVANAVFQWLDKPTETVAQLRSWLKPNGLLLFSTFGPDTFYELHDSFQLAAKQLGIIDERRGLDYLSKTEWKRTLDGLFAELTIHEEKAIESYATVEQFLHTVKKMGATYSQSSRPLSKRYYQLMKEIYEQRYRTEDSIPATYDCLYVLCQAEGHHHHHH | soluble
MSLFILKNVTAVQLEPTLVLEGVDIAIEGSLIKAVGPNLRALYPQANYREMGGKLVMPGIVCAHNHFYSGLSRGIMANIAPCPDFISTLKNLWWRLDRALDEESLYYSGLICSLEAIKSGCSAVIDHHASPNFIKGSLNVLRKGFVEAGLRGMTCFETTDRNGGLAELQAGVEENILFAQAIDAAKAKGREPYLVEAHIGAHAPFTVPDEGLAMLREAVQVTGRGLHIHVAEDRYDMAHGHHHHGKEPIARLDEFDLVDSKTLIAHGIYLSPADIELLNSRDAFLVHNARSNMNNHVGYNMHLPEYRNLALGTDGIGSDMLEELKFAYFKHKDAGGALWPDSFARFLWNGNTLLERNFGAKFGRLEPGYKADLTICDYAAPTPLAPRNLGGHLAFGMGSSSVNSVMVEGRMVYQDREFAFDVEPIYQQASKVASRLWQRMDQLAEGHHHHHH | soluble
MSLFIRDNHLHTHHSYDSDANFTDYLTHFDGEIVTTEHYDLSNPYTKQDDVPDYESYSHEVEKLNLKYGNRIKRGIEIGYYQPRESDILDFLDGKDYDLKLLSVHHNGVNDYLDDEVAEMDKANIIQEYLDKLEYAVGRVDADVLAHFDYGFRLFDVTVDELKAYENQLKRIFKKMIANDLAFELNSKSMYLYHHEGLYRYVLALVKDLGCRKYSIGSDGHKLEHFRLNFDKIQELLREFEITEDMEGHHHHHH | not soluble
MSLFLITNRKLVNREKYFNTIEEAGKYGVKNIILREKDLSTKELIKIYIKIKELVTEETNIIINSNIEATMILKEKFIHLSFKDFKRNLEEVKSLQVGVSVHSILEAIEADRLGASYILVSPIFETQCKKGVTPKGINFIKEIKEKVNCNVIALGGINEHNFKEVLGAGADDFACMSLLFMSNNIKKSLYTFKSLEGHHHHHH | not soluble
MSLFLQPLLAKKIIAEVKKMYEREVIIVNTDGLIMAGTNDERVGQFHEGALICAKERRSVIITKEDETRLKGVKAGINLPVFFDHDVISVFGLTGEPAEIQPFGELLRKMTELFIKESRHLEQSQWRERMLESFMIDWLQLKEWSPSFLEKAQLLGVDLSSRRQMILIQGYEWSPHDIEQMARSWKSSYPADLFIRWGNERILINHEVPQHEQRDRLLRKILHICSFANTASSQYTAAGAGRAVASSSLTDSYEQAEKALAVSLKRKTPIFEEDLKLDMCLTEISPGTRNEFPQRVLGKALEHQELMNTIRTFFHHDLSLKQTAEDMHIHINTLRYRLAKAEQLTGLRFDRTEDVVTMYVALYFLDQDTKEGGSHHHHHH | soluble
MSLFSISNLSFIGFLKRIVFSSDSLPGKWEHRKFRFMYILRCSINPVVSIRYYYELRSLPCIEDILAIHPTLPARIHRPYLHKGGRAWTRGQYILEHYRFVQNLPEKYSKFLFPQKSVSLVQFIGKDGENFDIQCSPSGFDREGELMLSLFYNKTVIARLTYSVILTQNGHIAFIGGLQGAPKNTGPDVIRCATRACYGLFPKRIIFEAFCALMKACNVSECLAVSEHSHVFRQLKYWYQKRKTFVAVYSDFWDSVPGKTCGDWYKLPTQVIRKPLTDIPIKKRSDYRKQYALLDYIHETTIRSLDAYPVHSKHQNSNEGHHHHHH | not soluble
MSLGDITISFESSDIDRHLILGVDWLIEGNLYEDAVESSIALSRRFLLNGKVKSLEMFLDEKPIDDLLKNYQLSKIHEMDVDSTEDTSVLEIQQYRYLINIFKQYMEWEKTVKLLNSESNIPSIIEKFQEFFQSTFKLIKTFLVDLTENIDHKDHDILFEIRALYTPYLIMELHKGLVEAASLLRIPRFIKDALNITNLVANEDDKIYLLFQSSGKLKEYLQLVAQTATLTEGHHHHHH | soluble
MSLGDQTLVRELSPLKNKGESTFRMGLYIRDSAAGVGTLTFYDPVSKKYGALGHVISDVDTKKPIVVHDGQIIRSSVTSIDKGSNGDPGEKLASFSNQRNTLGTIEKNSSFGIFGTLTEKDLKNHVSDEALPVTLSNHVKEGPAKILTVVEGEKVEEFDIEIVSSVPQKQPATKGLVIKVTDPKLLNTTGGIVQGMSGSPIIQDGKLVGAVTHVFVNDPTSGYGCHISWMLEEAGITFDQSKAKASEGHHHHHH | soluble
MSLGEAEARVVLNMNTGWAFHRGEVESGGQPGLDDSGWIAAIIPHIMQLEKKHCGGDIIYDGVGWYRRTFRVPSQYKDKQIKISFEGVMNACEVYLNGQKISAHRGGYVGFVTDITTRINWDRDNLLAVRVSAEYDPLTPPGKPQAGMDFYYYSGIYRDVEMVISDPLHITHALEEEEVAGGGIFVTYPVVGKEKAVTHVKAHVRNEGKRKRKAQLRTQLIDKSGKIVACQLTPFRLSAGEAIHLEQNLEIVHPSLWHPYDPNLYTLQNEIVENGKVVDCHTESIGIRTIAYTRDGGFYINGESLYLRGANRHQAFAHIGDAAANSMQERDVIDLKRGGCNAVRAAHYPQDPAFLAACDKYGLLVVECIPGWQYFKNDSTFISRLYEVGKQMIRRDRNHPSVILWETALNESRYPAEIARNLYAIAHIEYPGDQMYTAGDYFGHADRVDCFDVFYKQVSRFPKDGDVMSNYPEDQIAVKPLFCREWGDGVGEKPRVSLMENEEEQLKQCRGRFLQLNGHGYFDWCMLDANPRMGGHFLWSYNDYARGAEQETMFCGIVDINRYPKFSYYMMQSMRDKEISQPGLYDGPMVFIASQNTASRYVSSVNEITVFSNCDEVRLFRNHHLIGKQMRKERTPLYRSIVEKGGSPCYVFNAGTYEAGELVAEGIVDGKVVATHSVRTPEQPRQVKIWLKEENIQPVADGSDMIPVYFKVCDSNGTLVNTSDVRIHISVSGEGSLIGDGIERIGINPQLVEGGVGYALIRTTCRPGKIHISVTADGLRGDTREIVTRRYDGEGHHHHHH | not soluble
MSLGEKSRETSSPWSSTILLVKITSADGLVGYGEAPTTLMTLPVLESMKEVARVFNGKDFFNVERNVFDFYRNSFYLPVSMEATSALSAFEIASWDLIGKQLGTPVYKLLGGEVNQKMRAYANGWYNDCVSPDDFLKKAKEVVKMGFTAMKFDPFGDNYDSITNDGLENARNIVGTLRSELGDKVDLLIEYHGRFSKIAAIKAGMALEEYHPFFYEEPLHPDLDHDLLDLKNYYRVPIALGERVLNKKIFARFISQKLVDIIQPDLTNSGGILEGKKIAAIADGFGIPVAPHNAFGPIQTAATLNLDTTITNFIIQESFEMFWPDWKKKLVSSGYKLENGYFTLTNEPGVCKVNEDIVEKYQVSGMEPFDDKEPPWVVSGTFKPYRQKEGHHHHHH | not soluble
MSLGELLFNRSFENTKPVSESNSWYTCYRGDVKEAKWWHSGYEEPKWYLLADGRKEEKLPLIFNNYWPSAHGKYFLQIDNRKKQIPTLLVQERIYIEKGKGYTVSGLFSSGGYLSEEKYSKESVPVTIAIYKEGDFHTPLSKTELAVNTNQFILYSSSLDATEYEGWCTYTIEVPAGGCVGIDLLSLMADDVIKGWKRESVERIKNELRPRTMRMPGGCFTSLYDWRSGIGPREERPVSYDTWWGCELLNDVGTFELVDLCEAVGAEPFFCVPVMFNNEYSAADWVDFCNNPTNAQRIAYGRTKPLNVKYWELENEPYRRFDAVTYANRCVDFAKAMKAKDPSIKIAVGNYWLFNKKFKEMLEIVGPYVDLITNRGGTPEEMRADIVILDAYNKAHGTDIKLCHTEFRAPVTRNEGNTDGLNQKDTGGEETLFNASIRWGFAMNMVEQYIAYQNMGGSFFTANYTNLSDGWGECLINTPKEGTYLNAPGVAFALLNSLDIAYPQIIEQEKENQDIVIQAAWNKRRDKLTLVVLNFSQNTQPCKIDFSQIKKSFRVRKGMKIAPQSDLSFNTLQHPEEVKVEEGHHHHHH | soluble
MSLGGDQAAGAVLPVTIFTARKFITMERGAPEATAVAVAGKRIVAAGSLAEVKTAVGSRPFTLDETFASKIVMPGLIDQHLHPVLGALTLAVEVIAPEDWVLPGGTHKAAGSADAYQARLKAADAKLDKPDAWLLTWGYHALWHGKLDRAALDAINPTRPIAVWHRSCHEFYLNTPALAALGISEAMTQNQGQASEQSNWREGHFWEGGLNLMMTPMLKVLATPERLAFGLKQMVSYLHANGVTAYMEPGALYTPDMWKLYEQILGAPETPMYATFIADGRGIVDRVGLDGALDAVEQQIAVAPEAPGRKLMFFPGQIKLFADGAIISQLMQMKDGYLDGHQGEWIIPPDELERRARLFWNAGYQIHTHVNGDLGLEKLLDILEKLNAEHPRPDHRSVIVHFANSTEDQVARIKRLGALVSANPYYTTGFADKYSAVGLGPERADAMVRAKSVLDQGVPLSYHSDLPMAPSAPLYLAWCGVNRLTPSGRVAGPEQRVSVDAALRAITIEAAYSWRHEDQLGSIAPGKIANFTVLEQDPYAVPPEQLKDVPIWGTVFEGRVFPVGREGHHHHHH | soluble
